From the supplement of paper PMC9170038

System: MS2 coat protein
Assay: apparent KD of MS2 coat protein; designed switch direction (-1 OFF switch, 1 ON switch): 1; higher = weaker reporter binding
In short: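 The reported apparent KD is a per-design median over clusters, from curve fits of normalised cluster fluorescence. Protein titrations used SNAP-549-labelled MS2 coat protein, doubled from 0.7 or 1.5 nM to 3 µM, in Tris-HCl pH 7.5 buffer with KCl, MgCl2, BSA, DTT, tRNA and Tween-20, with no input, 200 uM small-molecule ligand, or an oligonucleotide input. The RNA switches were transcribed on Illumina chips by stalled E. coli RNA polymerase.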

[1] = input ligand: microRNA oligo, concentration not stated

Sequence | apparent KD of MS2 coat protein (input ligand: FMN 200 uM) | apparent KD of MS2 coat protein [1] | apparent KD of MS2 coat protein (input ligand: none) | apparent KD of MS2 coat protein (Eterna round: R95, input ligand: FMN 200 uM) | apparent KD of MS2 coat protein (Eterna round: R95, input ligand: microRNA oligo, concentration not stated) | apparent KD of MS2 coat protein (Eterna round: R95, input ligand: none)
UGGUACAUGGGAGGAUAUCCUCAGGAGACAUGAGGAUCACCCAUGUAAUAUAAGCCGAAAGGCAUGGAGAAGGCCCAUGUACCU [JL SSNG1 3.81] (Eterna round: R96, puzzle: Same State NG 2) | 27.6 nM | 150 nM | 167 nM | – | – | –
UGGUACAUGGGAGGAUAUCUCAUGGAGACAUGAGGAUCACCCAUGUAGAUCGACGGUAACGUCGGAGAGAAGGCCCAUGUACCU [MOD JL SSNG1 3.70] (Eterna round: R96, puzzle: Same State NG 2) | 17.4 nM | 32.6 nM | 50 nM | – | – | –
UGGUACAUGGGAGGAUAUCUCAUGGAGACAUGAGGAUCACCCAUGUAGUAGGACCGGAAACGGUGAGAGAAGGCCCAUGUACCU [JL SSNG1 3.73] (Eterna round: R96, puzzle: Same State NG 2) | 26.6 nM | 40.5 nM | 51.5 nM | – | – | –
UGGUACAUGGGAGGAUAUCUCAUGGAGACAUGAGGAUCACCCAUGUAGUUGGACCGGAAACGGUGAGAGAAGGCCCAUGUACCU [JL SSNG1 3.72] (Eterna round: R96, puzzle: Same State NG 2) | 30.2 nM | 52.8 nM | 59.6 nM | – | – | –
UGUUAACAUGAGGAUCACCCAUGUCAAAUGAAGCGAGGAUAUGGAAAGUAAUAAGAUGAACUAGAAGGUGUAGAUG [Altered State 1-21 - Jieux - Same State 1] (puzzle: Same State 1) | – | – | – | 40.5 nM | 48.4 nM | 52.8 nM
UGUUGUAUUACAGGAUAUCUAUUGAUUUUAUUUAGAGAAGGGUAUUCACAUGAGGAUCACCCAUGUAUAUACGAGGAAGUUGUG [JMF's solution 71] (Eterna round: R96, puzzle: Same State NG 1) | – | 41.5 nM | – | – | – | –
UGUUGUAUUACAGGAUAUCUAUUGUUGUUAUUUAGAGAAGGGUAUUCACAUGAGGAUCACCCAUGUAUAUACGAGGAAGUUGUG [JMF's solution 75] (Eterna round: R96, puzzle: Same State NG 1) | – | 41.9 nM | – | – | – | –
UGUUUGUUGUGAGGAUAUACGUACACCUUACAUGAGGAUCACCCAUGUUGUUUCUUUGAUUGUUGGUAGAAGGCACUUGGUUAU [JR_SSNG2_Sub048] (Eterna round: R96, puzzle: Same State NG 2) | 324 nM | 123 nM | 208 nM | – | – | –
UUAACAUGAGGAUCACCCAUGUAUACGUAGUUUGCAUUUUGACAGGAUAUUGUUUAUCUAUAUAGCAAGAAGGGUCGUUAGUCU [JR_SSNG3_Sub009] (Eterna round: R96, puzzle: Same State NG 3) | 27 nM | 31.8 nM | 41.9 nM | – | – | –
UUAAUAAUGAUAGGAUAUACAUGAGGAAUUCUCGUAGAAGGAUCAUGACAUGAGGAUCACCCAUGUAACGCUCGGAAGAGCGUA [Mat - Same State NG 1 - JL mod - D38] (Eterna round: R96, puzzle: Same State NG 1) | 846 nM | 236 nM | 909 nM | – | – | –
UUAAUCUGAACAUGAGGAUCACCCAUGUAUCUUACCUUAGGACAGGAUAUAGAUGUUAAGAAUUACUAGAAGGGUCAGUAUAUU [JR_SSNG3_Sub012] (Eterna round: R96, puzzle: Same State NG 3) | – | 33.1 nM | – | – | – | –
UUAAUUAAUUAAUUAUACAUGAGGAUCACCCAUGUAAGUGAUCAGGAUAUCAGCUCGAAUAGAGCUGAGAAGGGAUACAUGAAU [SSNG3/12-A1] (Eterna round: R96, puzzle: Same State NG 3) | – | 101 nM | – | – | – | –
